# Test results from patent publication US10995119B2, “Peptide exhibiting hydrolytic activity and use thereof” (Okinawa Institute of Science and Technology School …, priority 2016, dated 2021).
# Like-named read-outs stand apart in the source and are kept apart here.
# What was measured:
# [1] = Autodigestion of the catalytic peptide (HPLC, MS); format: biochemical
# Protocol: (§1) First, to a buffer solution (Tris-HCl, pH 6.5, final concentration: 100 mmol/l), JAL (final concentration: 0.2 mmol/l) and the fragment peptide of hMMP7 (final concentration 0.05 mmol/l) were added. […] Thereafter, the reaction solution was subjected to HPLC, and the peaks of JAL and the fragment peptide of hMMP7 were examined. HPLC was performed under the following conditions.
# Next, the mechanism of autodigestion was examined using various mutants of JAL as hydrolytic peptides. To a reaction solution containing each of the mutants of JAL, a protease inhibitor (trade name: Roche cOmplete, Roche) was added to cause a reaction. One tablet of the protease inhibitor was dissolved in 1 ml of Milli-Q water, and then, 50 μl of the resultant mixture was added to the reaction solution. […] As a result, the autodigestion of all the peptides subjected to the measurement was inhibited (FIG. 16).
# Autodigestion in Box B was examined.
# JAL-TA9 was reacted in the same manner except that a substrate was not added to examine the autodigestion of JAL-TA9.
# The influence of an inhibitor on autodigestion of JAL-TA9 was examined. […] As the protease inhibitor, the serine protease inhibitor AEBSF, which inhibited the autodigestion of JAL 12-22 C19M in the item (6) in Example 4, was used.
# [2] = target: Aβ11-29 (Homo sapiens, UniProt P05067); test: Hydrolysis activity against Aβ11-29; conditions: for degradation of Aβ-F (Aβ11-29): Example 15, peptide 0.2 mmol/l
# Protocol: (§6) Further, any change in activity caused by addition of human serum albumin (HSA, Wako Pure Chemical Industries, Ltd., final concentration 0.025%) also was measured.
# (§7) As substrates, Aβ42 in the form of soluble powder (authentic sample, Peptide Institute Inc.) and fragment peptides thereof, namely, Aβ1-20, Aβ11-29, and soluble Aβ28-42, were used. […] In the case of MS analysis, the MS analysis was performed after applying 20 μl of the reaction solution to HPLC and collecting an aliquot of the peak.
# As a substrate, Aβ11-29, which is a fragment peptide of Aβ42, was used. […] In the case of MS analysis, the MS analysis was performed after applying 20 μl of the reaction solution after the reaction for 6 days to HPLC and collecting an aliquot of the peak.
# (§8) The present experiment examined activity against Aβ-Fs in Example 7.
# The reaction solution V shown in FIG. 52 was incubated at 37° C. for a predetermined time, and autodigestion of ANA-YA4 (YRMI) and cleavage of Aβ11-29 were examined.
# A reaction solution VI shown in FIG. 52 was incubated at 37° C. for a predetermined time, and cleavage of Aβ1-20 and Aβ11-29 by ANA-SA5 was examined.
# (§9) As substrates, the same Aβ1-20 and Aβ11-29 as used in Example 7 were used.
# The present example examined autodigestion and activity against Aβ-F of JAL 12-17 (YKGSGF) and JAL 12-16 (YKGSG). […] As a substrate, the same Aβ11-29 as used in Example 7 was used. The autodigestion was examined by causing the reaction in the same manner, except that the substrate was not added.
# [3] = target: Aβ1-20 (Homo sapiens, UniProt P05067); test: Hydrolysis activity against Aβ1-20
# Protocol: as §6, §7, §8, §9
# [4] = target: PrP 175-189 (Homo sapiens, UniProt P04156)
# [5] = target: soluble Aβ1-42 (Aβ42 authentic sample) (Homo sapiens, UniProt P05067); test: Hydrolysis activity against soluble Aβ1-42 (authentic sample)
# Protocol: as §7
# Aβ42 was used as a substrate. […] In the case of MS analysis, the MS analysis was performed after applying 20 μl of the reaction solution after the reaction for 7 days to HPLC and collecting an aliquot of the peak.
# [6] = target: SOD1 12-38 (Homo sapiens, UniProt P00441); test: Hydrolysis activity against SOD1 12-38; format: biochemical; conditions: pH 6.5 or 7.5, 3 or 4 days
# [7] = target: T1, hMMP7 1-42 (Homo sapiens, UniProt P09237); test: Hydrolysis activity against hMMP7 1-42, optimal pH; format: biochemical; conditions: 5 days
# T1 sequence (P09237 18-42): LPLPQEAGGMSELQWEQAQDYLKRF
# Source text: The pH of the reaction solution was adjusted using an acetate buffer solution in the pH range from 3.5 to 6.0 and using a Tris-HCl buffer solution in the pH range from 6.5 to 8.0. In either case, the final concentration was set to 150 mmol/l.
# [8] = target: SOD1 53-70 (Homo sapiens, UniProt P00441); test: Hydrolysis activity against SOD1 53-70; format: biochemical; conditions: pH 6.5 or 7.5, 3 or 4 days
# [9] = target: T2, hMMP7 26-50 (Homo sapiens, UniProt P09237); test: Hydrolysis activity against hMMP7 26-50 (HPLC, MS); format: biochemical
# T2 construct: host or cells: synthetic peptide
# T2 sequence (P09237 26-50 limits assumed): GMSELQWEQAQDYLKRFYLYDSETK
# Protocol: (§2) The present example examined whether a synthetic peptide JAL has hydrolysis activity against synthetic peptides derived from the prodomain of human matrix metalloprotease 7 (hMMP7).
# (§3) The following JAL was used as a hydrolytic peptide, and hMMP7 42-50 or hMMP7 26-50 was used as a substrate.
# as §1
# (§4) Then, in HPLC, aliquots of the peaks were collected (each 20 μl), and fragment identification was performed by mass spectrometry (ABI QSTAR Elite system) (referred to as “MS” hereinafter). MS was performed by a flow injection method under the following conditions.
# [10] = target: SOD1 2-12 (Homo sapiens, UniProt P00441); test: Hydrolysis activity against SOD1 2-12; format: biochemical; conditions: for hydrolysis activity of JAL mutants: Example 3 (1), substrate SOD1 2-38 or SOD1 2-12
# Source text: (§5) In JAL 1-22 C19M and JAL 7-22 C19M, Cys residues contained in JAL form S—S bonds during a reaction, and this makes fragment analysis difficult. On this account, JAL 1-22 and JAL 7-22 were modified so as to substitute Cys residues by Met.
# [11] = target: SOD1 2-38 (Homo sapiens, UniProt P00441); test: Hydrolysis activity against SOD1 2-38; format: biochemical; conditions: for hydrolysis activity of JAL mutants: Example 3 (1), substrate SOD1 2-38 or SOD1 2-12
# Protocol: As a control, physiological saline (0.9 w/v %) was used instead of the buffer solution. […] Also, it is considered that physiological saline is suitable for storage of JAL before use, for example.
# Next, an experiment was conducted to consider an optimal pH for activity using JAL as the hydrolytic peptide and SOD1 2-38 as a substrate.
# Metal ions to be added to a reaction solution were Zn^2+, Ca^2+, Co^2+, or combinations thereof. The concentrations of the metal ions in the respective reaction solutions were as follows: 10 mmol/l for Ca^2+; and 5 μmol/l for the other metal ions.
# as §5
# [12] = target: T3, hMMP7 42-50 (Homo sapiens, UniProt P09237); test: Hydrolysis activity against hMMP7 42-50 (HPLC, MS); format: biochemical
# T3 construct: host or cells: synthetic peptide
# Protocol: as §2, §3, §1, §4
# [13] = target: SOD1 115-154 (Homo sapiens, UniProt P00441); test: Hydrolysis activity against SOD1 115-154; format: biochemical; conditions: pH 6.5 or 7.5, 3 or 4 days
# [14] = target: Aβ1-19 (Homo sapiens, UniProt P05067); test: Hydrolysis activity against Aβ1-19
# Protocol: The present experiment was conducted to consider an optimal concentration of a hydrolytic peptide relative to a substrate, using JAL 7-22 C19M as the hydrolytic peptide and Aβ1-19 as the substrate. The measurement of activity was performed in the same manner as in the above item (1), except that the incubation time was set to 0 days, 3 days, or 5 days.
# [15] = target: Aβ28-42 (Homo sapiens, UniProt P05067); test: Hydrolysis activity against Aβ28-42; format: biochemical; conditions: reaction solution II; 1 day, 5 days
# [16] = Example 5 (1), JAL 14-18 and mutants
# [17] = Example 9, chimera 0.2 mmol/l, PBS, HSA
# [18] = JAL 0.2 mmol/l, substrate 0.05 mmol/l, Tris-HCl pH 6.5, 37° C., 14 days, HPLC
# [19] = reaction solution II, 1 day, 5 days
# [20] = Example 14, peptide 0.2 mmol/l, PBS, HSA
# [21] = Example 15, substrate not added
# [22] = reaction solution VI, reaction for 1 day
# [23] = reaction solution VI, reaction for 5 days
# Chain of SOD1 2-38 (P00441 2-38 limits assumed): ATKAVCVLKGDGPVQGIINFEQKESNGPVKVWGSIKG
# Chain of SOD1 115-154 (P00441 115-154): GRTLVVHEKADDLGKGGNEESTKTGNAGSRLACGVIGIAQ
# Chain of SOD1 12-38 (P00441 12-38 limits assumed): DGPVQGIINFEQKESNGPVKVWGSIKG
substance,measurement,setting,value
AISSSMHSLYGLGLGS [Tob1 221-236],autodigestion,"[1]; Example 6, HSA added, 5 days",fragments suggesting autodigestion of Tob1 221-236 were observed
same,hydrolysis activity against Aβ11-29,[2]; Example 6 (3),exhibited activity
AKGSGFRMI,hydrolysis activity against Aβ11-29,[2]; Example 3 (6),exhibited activity
APEKPYKGSGFRMIHA,hydrolysis activity against Aβ11-29,[2]; Example 3 (6),exhibited activity
DSGFR,hydrolysis activity against Aβ1-20,[3]; [16],strong activity
EKPYKGSGFRMI,hydrolysis activity against Aβ11-29,[2]; Example 3 (6),exhibited activity
FPEKPCKGSGYRCIRI [BTG1 7-22],hydrolysis activity against PrP 175-189,[4],exhibited activity
FVIFLDVKHFSPEDLTVK-AA-YKGSGFRMI (FVIFLDVKHFSPEDLTVKAAYKGSGFRMI) [chimera peptide],degradation of Aβ42 (HPLC),[5]; [17],degraded Aβ4211-29 from Day 1
same,degradation of Aβ11-29 (HPLC),[2]; [17],degraded Aβ11-29
GSGFR,hydrolysis activity against Aβ1-20,"[3]; Example 3 (2), (6)",exhibited activity
same,hydrolysis activity against Aβ1-20,[3]; [16],strong activity
GSGHR,hydrolysis activity against Aβ11-29,[2]; [16],strong activity
GSGQR,hydrolysis activity against Aβ11-29,[2]; [16],strong activity
GSGVR,hydrolysis activity against Aβ1-20,[3]; [16],strong activity
GSGYR,hydrolysis activity against Aβ1-20,[3]; [16],strong activity
HSDCPSKGQAFRCIRI [BTG4 7-22],hydrolysis activity against PrP 175-189,[4],exhibited activity
KYEGHWYPEKPYKGSGFRCIHI [JAL],hydrolysis activity against SOD1 12-38,[6],has activity
same,hydrolysis activity against hMMP7 1-42,"[7]; pH 3.5 to 6.0, acetate buffer 150 mmol/l",exhibited activity
same,hydrolysis activity against hMMP7 1-42,"[7]; pH 6.5 to 8.0, Tris-HCl 150 mmol/l",the results obtained were the same as that obtained after a lapse of 0 days from the start of the reaction
same,hydrolysis activity against SOD1 53-70,[8],strong activity
same,hydrolysis activity against Aβ1-20,"[3]; Example 3 (2), (6)",has activity
same,hydrolysis activity against Aβ1-20,"[3]; PBS (pH 7.4), 3 or 5 days",exhibited activity
same,hydrolysis activity against Aβ1-20,"[3]; phosphate buffer solution, 3 or 5 days",did not exhibit activity
same,"cleavage of substrate, fragment identification by MS",[9]; 16 days,cleaved at a plurality of sites
same,hydrolysis activity against hMMP7 26-50,[9]; [18],has activity
same,"cleavage sites, fragment identification by MS",[10],a plurality of sites indicated with arrows were cleaved
same,hydrolysis activity against SOD1 2-12,"[10]; pH 6.5 or 7.5, 3 or 4 days",has activity
same,autodigestion,"[1]; Tris-HCl pH 6.5, 37° C., 14 days, with hMMP7 fragment",autodigestion of JAL occurred
same,"cleavage sites, fragment identification by MS",[11],a plurality of sites indicated with arrows were cleaved
same,hydrolysis activity against SOD1 2-38,"[11]; Tris buffer solution at various concentrations, 1 or 4 days",exhibited activity regardless of the concentration of the Tris buffer solution
same,hydrolysis activity against SOD1 2-38,"[11]; assay buffer solution (50 mmol/l Tris-HCl pH 7.5, NaCl, Ca, Zn, Briji35, NaN3) vs Tris buffer pH 6.5, 0, 1, 3 days",cleavage by JAL was observed earlier
same,hydrolysis activity against SOD1 2-38,[11]; only Milli-Q water (0 mmol/l Tris),did not exhibit activity
same,hydrolysis activity against SOD1 2-38,"[11]; pH 6.5 or 7.5, 3 or 4 days",strong activity
same,hydrolysis activity against SOD1 2-38,"[11]; pH 6.5 to 8.0 in increments of 0.5, 1 day",exhibited activity at all the pH values
same,hydrolysis activity against SOD1 2-38,[11]; physiological saline (0.9 w/v %) instead of buffer,did not exhibit activity
same,hydrolysis activity against SOD1 2-38,"[11]; with or without Zn2+, Ca2+, Co2+, 1 day",exhibited activity regardless of the presence or absence of the metals
same,"cleavage of substrate, fragment identification by MS",[12]; 16 days,cleaved at a plurality of sites
same,hydrolysis activity against hMMP7 42-50,[12]; [18],has activity
same,hydrolysis activity against SOD1 115-154,[13],did not exhibit activity
KYEGHWYPEKPYKGSGFRMIHI [JAL 1-22 C19M],hydrolysis activity against Aβ1-19,"[14]; CH3OH or CH3CN 10%, 3 or 5 days",did not exhibit activity
same,hydrolysis activity against Aβ1-19,"[14]; DMSO 10%, 3 or 5 days",exhibited activity
same,hydrolysis activity of JAL mutants,[10],exhibited hydrolysis activity
same,hydrolysis activity of JAL mutants,[11],exhibited hydrolysis activity
SKGQA [ANA-SA5],types of fragments of Aβ1-20 detected,[3]; reaction for 5 days,12
same,types of fragments of Aβ11-29 detected,[2]; reaction for 5 days,13
SKGQAYRMI [ANA-TA9],cleavage of Aβ-Fs,[3]; [19],could cleave all the Aβ-Fs
same,cleavage of Aβ42,"[5]; authentic sample Aβ42, reaction solution III",could cleave Aβ42
same,cleavage of Aβ-Fs,[15],could cleave all the Aβ-Fs
same,autodigestion,"[1]; reaction solution I, 37° C.",autodigestion of ANA-TA9 was observed
same,autodigestion in presence of protease inhibitor,"[1]; reaction solution IV, 6 hours",inhibited by the protease inhibitor
same,cleavage of Aβ-Fs,[2]; [19],could cleave all the Aβ-Fs
WIDPFEVSYQIGE [Box B Tob1 8-20],cleavage sites in Aβ-Fs (MS),[3]; Example 14,cleaved at a plurality of sites
same,degradation of Aβ-Fs (HPLC),[3]; [20],degraded Aβ-Fs
same,autodigestion,"[1]; Example 6, HSA added, 5 days",fragments suggesting the occurrence of autodigestion were observed
same,cleavage sites in Aβ-Fs (MS),[2]; Example 14,cleaved at a plurality of sites
same,degradation of Aβ-Fs (HPLC),[2]; [20],degraded Aβ-Fs
WVDPYEVSYRIGE [Box B BTG1 8-20],autodigestion,"[1]; Example 6, HSA added, 5 days",fragments suggesting the occurrence of autodigestion were observed
same,hydrolysis activity against Aβ11-29,[2]; Example 6 (3),exhibited activity
YKGAGFR,hydrolysis activity against Aβ1-20,"[3]; Example 3 (2), (6)",exhibited activity
YKGSG [JAL 12-16],autodigestion,[1]; [21],digested themselves
same,degradation of Aβ-F (Aβ11-29),"[2]; PBS, HSA",degraded Aβ-F
YKGSGF [JAL 12-17],autodigestion,[1]; [21],digested themselves
same,degradation of Aβ-F (Aβ11-29),"[2]; PBS, HSA",degraded Aβ-F
YKGSGFR [JAL (Tob1) 12-18],hydrolysis activity against Aβ1-20,"[3]; Example 3 (2), (6)",exhibited activity
YKGSGFRMI [JAL 12-20 C19M],autodigestion in presence of protease inhibitor,"[1]; AEBSF, with Aβ11-29, 1 day",inhibited by AEBSF
same,hydrolysis activity against Aβ11-29,[2]; Example 3 (6),exhibited activity
same,hydrolysis activity against Aβ11-29,[2]; Example 4 (5),strong activity
YKGSGFRMIHA,hydrolysis activity against Aβ11-29,[2]; Example 3 (6),exhibited activity
YPEKPLKGSGFRCVHI [Tob2 7-22],hydrolysis activity against PrP 175-189,[4],exhibited activity
same,hydrolysis activity against PrP 175-189,[4]; Cu2+ further added to HSA,exhibited activity
YPEKPSKGQAYRCIRV [BTG3 7-22],hydrolysis activity against PrP 175-189,[4],exhibited activity
same,hydrolysis activity against PrP 175-189,[4]; Cu2+ further added to HSA,exhibited activity
YPEKPYKGSGFRCIHI [JAL 7-22],hydrolysis activity against Aβ1-19,[14]; high peptide concentration,lowered
same,hydrolysis activity against Aβ1-19,"[14]; substrate:peptide 1:1 (0.05 mmol/l) and 1:4 (0.2 mmol/l), 3 or 5 days",strong activity
same,hydrolysis activity of JAL mutants,[10],exhibited hydrolysis activity
same,hydrolysis activity of JAL mutants,[11],exhibited hydrolysis activity
YRMI [ANA-SA4],cleavage of Aβ1-20,"[3]; reaction solution V, 37° C.",degraded Aβ1-20
same,Aβ1-20 peak remaining,[3]; [22],49.6%
same,Aβ1-20 peak,[3]; [23],almost disappeared
same,autodigestion,"[1]; reaction solution V, 37° C.",digested itself
same,cleavage of Aβ11-29,"[2]; reaction solution V, 37° C.",degraded Aβ11-29
same,Aβ11-29 peak remaining,[2]; [22],72%
same,Aβ11-29 peak,[2]; [23],almost disappeared
